Data reported in patent publication US20100311605A1, “SENSING PLATFORM” (NATIONAL CHIAO TUNG UNIVERSITY, priority 2009, published 2010).

T1: MMP-2 (Homo sapiens, UniProt P08253)
T1 construct: purchased Sigma-Aldrich, USA
T1 sequence (P08253 110-660): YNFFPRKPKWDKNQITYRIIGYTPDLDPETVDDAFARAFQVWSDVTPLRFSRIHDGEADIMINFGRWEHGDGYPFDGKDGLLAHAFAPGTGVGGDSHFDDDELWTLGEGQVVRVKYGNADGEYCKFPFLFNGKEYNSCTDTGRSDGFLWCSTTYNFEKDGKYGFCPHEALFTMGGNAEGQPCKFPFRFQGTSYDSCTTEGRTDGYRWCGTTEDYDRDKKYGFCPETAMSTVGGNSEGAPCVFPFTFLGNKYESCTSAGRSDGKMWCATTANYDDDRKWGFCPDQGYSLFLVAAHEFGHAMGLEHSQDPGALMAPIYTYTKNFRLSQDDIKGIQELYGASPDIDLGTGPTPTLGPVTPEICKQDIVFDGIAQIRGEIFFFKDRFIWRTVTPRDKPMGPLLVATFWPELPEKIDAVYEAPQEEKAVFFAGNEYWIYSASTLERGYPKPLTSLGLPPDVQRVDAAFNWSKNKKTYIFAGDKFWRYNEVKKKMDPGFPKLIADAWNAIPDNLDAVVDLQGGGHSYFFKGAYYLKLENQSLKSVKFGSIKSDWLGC


Columns and labels:
trypsin = experiment: Specificity test of proteinase suppressors with AuNPs/MCH-gelatin sensing platform, trypsin; type: biochemical; conditions: suppressor solution 10 mM; 0.5 μL trypsin (100 ng/μL); 37° C., 30 minutes; FIG. 6
Experimental: (§1) Then, a solution of a highly concentrated proteinase suppressor ONO-4817 or A1AT (10 mM) was added to give a mixture. The mixture was placed in a water bath at 37° C. for 30 minutes to allow the reaction. A change in wavelength was measured by a spectrophotometer, and the ratios (A625/A525) of the values measured at wavelengths of 625 nm and 525 nm were calculated.

MMP-2 [1] = target: T1, MMP-2; experiment: Test of MMP-2 suppressor activity and specificity with AuNPs/MCH-gelatin sensing platform; type: biochemical; conditions: 37° C., 30 minutes; for suppression of MMP-2 activity (ratios A625/A525 versus control group): suppressor solution 10 mM, 0.5 μL MMP-2 (100 ng/μL), FIG. 6
Experimental: Buffer solutions containing different concentrations of ONO-4817 were added respectively into the solution of AuNPs/MCH-gelatin in a cuvette, and the concentrations of the solutions of AuNPs/MCH-gelatin were adjusted to give an OD525=1.
as §1

MMP-2 [2] = target: T1, MMP-2; conditions: read-out: enzyme inhibition constant (Ki); cited from earlier work
AuNPs/MCH-gelatin = experiment: Activity test of proteinase (trypsin) on AuNPs/MCH-gelatin; type: biochemical; conditions: 37° C., 10 minutes
Excerpt: Different concentrations of trypsin were used for detection.
Ratios (A625/A525) of the measured values at wavelengths of 625 nm and 525 nm are used as a basis for detection, so as to correct the error of waveform overlapping caused by changes to the sizes of the AuNPs. The ratios (A625/A525) of the groups are in the following: 0.2127 for A, 0.2131 for B, 0.2134 for C, 0.2554 for D, 0.4236 for E, 0.5674 for F, 0.6114 for G and 0.6484 for H. The ratios and the trypsin concentrations are shown in FIG. 3I, wherein when the trypsin concentrations are from 1.25×10^−1 U to 1.25×10^2 U, the wavelength changes and the trypsin concentrations are positively associated.

suppression of MMP-2 activity (waveform change, A625/A525) (MMP-2 [1]; different concentrations of ONO-4817 (0.0125 to 512 nM), 0.5 μL MMP-2 (100 ng/μL) in 200 μL AuNPs/MCH-gelatin, FIG. 5)	suppression of MMP-2 activity (ratios A625/A525 versus control group) (MMP-2 [1])	ratio A625/A525 (AuNPs/MCH-gelatin; group B, 1.25×10^−3 U of trypsin)	ratio A625/A525 (AuNPs/MCH-gelatin; group C, 1.25×10^−2 U of trypsin)	ratio A625/A525 (AuNPs/MCH-gelatin; group D, 1.25×10^−1 U of trypsin)	ratio A625/A525 (AuNPs/MCH-gelatin; group E, 1.25×10^0 U of trypsin)	ratio A625/A525 (AuNPs/MCH-gelatin; group F, 1.25×10^1 U of trypsin)	ratio A625/A525 (AuNPs/MCH-gelatin; group G, 1.25×10^2 U of trypsin)	ratio A625/A525 (AuNPs/MCH-gelatin; group H, 1.25×10^3 U of trypsin)	Molecule	suppression of trypsin activity (ratios A625/A525 versus control group) (trypsin)	Ki (MMP-2 [2]) [nM]
can suppress the activity of MMP-2	can suppress the activity of MMP-2	–	–	–	–	–	–	–	CCOCOC[C@H](C[C@H](C)C(=O)NO)NC(=O)c1ccc(Oc2ccccc2)cc1 [ONO-4817]	significantly increase	0.72
–	not suppressed	–	–	–	–	–	–	–	A1AT: trypsin suppressor; cannot suppress the activity of MMPs	can effectively suppress the activity of trypsin	–
–	–	0.2131	0.2134	0.2554	0.4236	0.5674	0.6114	0.6484	trypsin: proteinase detected by the sensing platform (protein, UniProt P00760 24-246, looked up) Serine protease 1: IVGGYTCGANTVPYQVSLNSGYHFCGGSLINSQWVVSAAHCYKSGIQVRLGEDNINVVEGNEQFISASKSIVHPSYNSNTLNNDIMLIKLKSAASLNSRVASISLPTSCASAGTQCLISGWGNTKSSGTSYPDVLKCLKAPILSDSSCKSAYPGQITSNMFCAGYLEGGKDSCQGDSGGPVVCSGKLQGIVSWGSGCAQKNKPGVYTKVCNYVSWIKQTIASN	–	–
